Data published in patent US20150307617A1 (Genentech, published 2015).

T1: human OX40 expressed on the cell surface (Hut78-hOX40 cells; human T cells) (human, UniProt P43489 29-277)
T1 construct: Hut78 T cell line stably transfected or retrovirally transduced with human OX40, or native OX40 on human peripheral blood T cells; also called huOX40; Hut78-OX40
T1 sequence: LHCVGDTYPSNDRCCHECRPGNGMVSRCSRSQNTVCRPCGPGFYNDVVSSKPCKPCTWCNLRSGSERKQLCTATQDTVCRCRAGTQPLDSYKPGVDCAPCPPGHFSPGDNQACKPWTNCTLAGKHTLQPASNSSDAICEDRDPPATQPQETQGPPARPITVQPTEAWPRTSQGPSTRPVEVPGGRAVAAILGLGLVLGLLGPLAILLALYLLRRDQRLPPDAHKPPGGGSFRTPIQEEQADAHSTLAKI

T2: rat OX40 on T cells (rat, UniProt P15725 20-271)
T2 construct: whole, on cells
T2 sequence (looked up): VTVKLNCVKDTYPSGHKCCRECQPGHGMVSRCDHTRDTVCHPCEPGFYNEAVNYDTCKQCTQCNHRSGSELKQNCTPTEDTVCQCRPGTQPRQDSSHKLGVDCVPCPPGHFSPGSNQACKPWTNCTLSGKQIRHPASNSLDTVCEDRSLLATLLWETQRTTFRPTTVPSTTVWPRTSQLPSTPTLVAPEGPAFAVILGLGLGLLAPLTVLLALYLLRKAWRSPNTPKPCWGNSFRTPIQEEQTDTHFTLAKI

T3: mouse OX40 on T cells (mouse, UniProt P47741 20-272)
T3 construct: whole, on cells
T3 sequence (looked up): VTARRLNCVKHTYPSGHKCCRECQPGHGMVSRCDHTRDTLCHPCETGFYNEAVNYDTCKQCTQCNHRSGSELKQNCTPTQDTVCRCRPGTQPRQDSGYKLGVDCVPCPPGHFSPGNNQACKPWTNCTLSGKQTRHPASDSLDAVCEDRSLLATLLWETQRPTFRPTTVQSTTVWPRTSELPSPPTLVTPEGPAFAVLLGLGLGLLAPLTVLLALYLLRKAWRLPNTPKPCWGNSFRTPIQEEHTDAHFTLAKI


Experiments:
[1] = target: T1, human OX40 expressed on the cell …; assay: flow cytometry titration of OX40L-flag on Hut78-hOX40 cells, 3-fold dilutions from 10 ug/mL, detected with anti-flag-Alexa Fluor 555
Protocol: (§1) After 30 min of incubation at 4 C, cells were washed twice in Wash Buffer (PBS/0.5% FBS/2 mM EDTA), followed by data acquisition on FACSCantoII flow cytometer (BD). Data were then analyzed by Flowjo program (TreeStar) and the mean fluorescent intensity (MFI) was captured. […] A titration of OX40L-flag binding was carried out in a similar fashion, except that OX40L-flag was titrated 3 fold down starting from 10 ug/mL.

[2] = target: T1, human OX40 expressed on the cell …; assay: flow cytometry competition on Hut78-hOX40 cells: OX40L-flag titrated first, then 200 ng/mL 1A7.gr.1-Alexa Fluor 647 added; readout is the MFI of 1A7.gr.1
Protocol: as §1
After 30 min of incubation at 4 C, cells were washed twice in Wash Buffer, followed by data acquisition on FACSCantoII flow cytometer (BD).

[3] = target: T2, rat OX40 on T cells; assay: flow cytometry, Alexa Fluor 647-labeled antibody on peripheral blood T cells
[4] = target: T3, mouse OX40 on T cells; assay: as above
[5] = target: T4, cynomolgus monkey OX40 on T cells (cynomolgus monkey); assay: flow cytometry, Alexa Fluor 647-labeled antibody on cynomolgus monkey T cells, assay 1
T4 construct: whole, on cells; also called cynomolgus OX40
Protocol: (§2) Cells were blocked with 10% human, cynomolgus monkey, rat or mouse serum respectively in PBS for 15 minutes at 4° C. and plated in a 96 well plate at the equivalent of 100 μL of whole blood per reaction.

[6] = target: T4, cynomolgus monkey OX40 on T cells; assay: flow cytometry, Alexa Fluor 647-labeled antibody on cynomolgus monkey T cells, assay 2
Protocol: as §2

[7] = target: T4, cynomolgus monkey OX40 on T cells; assay: flow cytometry, Alexa Fluor 647-labeled antibody on cynomolgus monkey T cells, average (± SD)
Protocol: as §2

[8] = target: T4, cynomolgus monkey OX40 on T cells; assay: flow cytometry, Alexa Fluor 647-labeled antibody on cynomolgus monkey T cells, average in molar units
Protocol: as §2

Binder	EC50 (read off the curve) [1] [ng/mL]	IC50 (read off the curve) [2] [ng/mL]	binding result [3]	binding result [4]	EC50 [5] [µg/mL]	EC50 [6] [µg/mL]	EC50 [7] [µg/mL]	EC50 [8] [nM]
Human OX40L-flag (ligand, UniProt P23510 51-183, looked up, Made at Genentech; not shown: flag tag) QVSHRYPRIQSIKVQFTEYKKEKGFILTSQKEDEIMKVQNNSVIINCDGFYLISLKGYFSQEVNISLHYQKDEEPLFQLKKVRSVNSLMVASLTYKDKVYLNVTTDNTSLDDFHVNGGELILIHQNPGEFCVL	~200	~200						
1A7.gr.1 (antibody, V domains shown, human IgG1; 125I-labeled (radioligand assay) or Alexa Fluor 647-labeled (flow cytometry) in some assays; also called mab 1A7.gr.1; MOXR0916) VH: EVQLVQSGAEVKKPGASVKVSCKASGYTFTDSYMSWVRQAPGQGLEWIGDMYPDNGDSSYNQKFRERVTITRDTSTSTAYLELSSLRSEDTAVYYCVLAPRWYFSVWGQGTLVTVSS VL: DIQMTQSPSSLSASVGDRVTITCRASQDISNYLNWYQQKPGKAPKLLIYYTSRLRSGVPSRFSGSGSGTDFTLTISSLQPEDFATYYCQQGHTLPPTFGQGTKVEIK			no binding (tested: titrated from 9 µg/mL)	no binding (tested: titrated from 9 µg/mL)	0.143	0.142	0.142	0.946
